Patent US7655771B1, “Polymorphisms in the human cyp3a4 and cyp3a7 genes and their use in diagnostic and therapeutic applications” (PGx Health, LLC, priority 1999, dated 2010)
Several values for one entry are separate records, joined by “and”; a condition that tells them apart may be missing. Identical values can stand only once. Marks after values point to notes of the source that are not given here.

These substances were tested on CYP3A4 (assay: Testosterone hydroxylase activity of wild-type and mutant CYP3A4 proteins (reconstituted with NADPH-cytochrome P450 reductase and cytochrome b5)). Details: not given.
Type: biochemical, human
Experimental: (§1) Mutants were expressed in E. coli TOPP3 cells. Cultures of each strain were started from single colonies in 2-ml of LB media containing ampicillin (50 μg/ml) and tetracycline (15 μg/ml) and grown overnight at 37° C. with shaking. Larger, 20-ml cultures of each sample were inoculated and grown as described for the 2-ml cultures. Starter cultures (15 ml) were inoculated into 250-ml of TB media containing ampicillin (50 μg/ml) and grown 2-3 hr at 37° C. at 250 rpm. δ-aminolevulinic acid (80 mg/L) and IPTG (1 mM) were added and the cultures grown 72 hr at 30° C. at 190 rpm. The cells were harvested, sonicated and CHAPS solubilized, and the protein was purified on Talon Metal Affinity resin from Clontech (Palo Alto, Calif.). Final P450 content was measured by reduced CO difference spectra (Omura, J Biol Chem 239 (1964), 2370-2378), and each protein was visualized on an 8.5% SDS PAGE gel stained with Coomassie blue. Western Blot analysis of CYP3A4 wild-type, M2, M5 and M7 was performed by resolving 1 pmol of 3A4 wildtype and M5, and 8 μl of M2 and M7 total protein sample on an 8.5% SDS PAGE gel. The samples were then transferred to nitrocellulose and probed with an anti-3A12 polyclonal antibody known to cross-react with CYP3A4 (Ciaccio, Arch Biochem Biophys 271 (1989), 284-99).
(§2) Following the reconstitution with NADPH-cytochrome P450 reductase and cytochrome b5, the catalytical activities of M1, M4, M5 and M6 variants were measured using testosterone, progesterone and 7-BFC as substrates (Tables 5-7).
In the case of “M1: CYP3A4 protein variant G56D (g.6004G>A, exon 3) [Mutant M1]”, the “Testosterone hydroxylase metabolite profile compared with wild-type CYP3A4” value is reported as “Neither M1 nor M4 mutant displayed alterations”.
For “M4: CYP3A4 protein variant D174H (g.14304G>C, exon 6) [Mutant M4]”, the “Testosterone hydroxylase metabolite profile compared with wild-type CYP3A4” value was “Neither M1 nor M4 mutant displayed alterations”.
With “M6: CYP3A4 protein variant L373F (g.21896C>T, exon 11) [Mutant M6]” the “Testosterone hydroxylase metabolite profile compared with wild-type CYP3A4” value was “strikingly altered testosterone hydroxylase metabolite profile”.

Same assay, conditions: 25 μM testosterone
With “M1: CYP3A4 protein variant G56D (g.6004G>A, exon 3) [Mutant M1]” the “Testosterone hydroxylase activity, 2β-OH” value was <0.1, <0.1 nmol product/min/nmol protein, the “Testosterone hydroxylase activity, 6β-OH” value was 5.1 nmol product/min/nmol protein and 4.8 nmol product/min/nmol protein and the “Testosterone hydroxylase activity, 15β-OH” value was 0.2, 0.2 nmol product/min/nmol protein.
With “M4: CYP3A4 protein variant D174H (g.14304G>C, exon 6) [Mutant M4]” the “Testosterone hydroxylase activity, 2β-OH” value was <0.1, <0.1 nmol product/min/nmol protein, the “Testosterone hydroxylase activity, 6β-OH” value was 4.4 nmol product/min/nmol protein and 3.9 nmol product/min/nmol protein and the “Testosterone hydroxylase activity, 15β-OH” value was 0.1, 0.1 nmol product/min/nmol protein.
“M6: CYP3A4 protein variant L373F (g.21896C>T, exon 11) [Mutant M6]” was tested, and the “Testosterone hydroxylase activity, 2β-OH” value was 3.5 nmol product/min/nmol protein and 2.8 nmol product/min/nmol protein, the “Testosterone hydroxylase activity, 6β-OH” value was 10.1 nmol product/min/nmol protein and 8.6 nmol product/min/nmol protein and the “Testosterone hydroxylase activity, 15β-OH” value was 1.7 nmol product/min/nmol protein and 1.3 nmol product/min/nmol protein.
With “WT: wild-type CYP3A4 protein encoded by pSE3A4H vector, identical to that found in most Caucasians, expressed in E. coli [reference compound]” the “Testosterone hydroxylase activity, 2β-OH” value was 0.2 nmol product/min/nmol protein, the “Testosterone hydroxylase activity, 6β-OH” value was 9.3^a nmol product/min/nmol protein and the “Testosterone hydroxylase activity, 15β-OH” value was 0.4 nmol product/min/nmol protein.

Same assay, conditions: 25 μM testosterone (lower steroid concentration)
In the case of “M1: CYP3A4 protein variant G56D (g.6004G>A, exon 3) [Mutant M1]”, the “Testosterone hydroxylase activity relative to wild-type CYP3A4” value is reported as 53%.
For “M4: CYP3A4 protein variant D174H (g.14304G>C, exon 6) [Mutant M4]”, the “Testosterone hydroxylase activity relative to wild-type CYP3A4” value was less than 50%.

Same assay, conditions: 400 μM testosterone
With “M1: CYP3A4 protein variant G56D (g.6004G>A, exon 3) [Mutant M1]” the “Testosterone hydroxylase activity, 2β-OH” value was 5.4 nmol product/min/nmol protein and 6.9 nmol product/min/nmol protein, the “Testosterone hydroxylase activity, 6β-OH” value was 32.1, nmol product/min/nmol protein and 32.2^b nmol product/min/nmol protein and the “Testosterone hydroxylase activity, 15β-OH” value was 1.2 nmol product/min/nmol protein and 1.1 nmol product/min/nmol protein.
For “M4: CYP3A4 protein variant D174H (g.14304G>C, exon 6) [Mutant M4]”, the “Testosterone hydroxylase activity, 2β-OH” value was 5.3 nmol product/min/nmol protein and 5.6 nmol product/min/nmol protein, the “Testosterone hydroxylase activity, 6β-OH” value was 32.4 nmol product/min/nmol protein and 29.8 nmol product/min/nmol protein and the “Testosterone hydroxylase activity, 15β-OH” value was 1.3 nmol product/min/nmol protein and 0.9 nmol product/min/nmol protein.
In the case of “M6: CYP3A4 protein variant L373F (g.21896C>T, exon 11) [Mutant M6]”, the “Testosterone hydroxylase activity, 2β-OH” value is reported as 29.2, nmol product/min/nmol protein and 36.3 nmol product/min/nmol protein, the “Testosterone hydroxylase activity, 6β-OH” value is reported as 45.3 nmol product/min/nmol protein and 58.8 nmol product/min/nmol protein and the “Testosterone hydroxylase activity, 15β-OH” value is reported as 5.9 nmol product/min/nmol protein and 7.7 nmol product/min/nmol protein.
With “WT: wild-type CYP3A4 protein encoded by pSE3A4H vector, identical to that found in most Caucasians, expressed in E. coli [reference compound]” the “Testosterone hydroxylase activity, 2β-OH” value was 3.0 nmol product/min/nmol protein, the “Testosterone hydroxylase activity, 6β-OH” value was 41.6^a nmol product/min/nmol protein and the “Testosterone hydroxylase activity, 15β-OH” value was 1.2 nmol product/min/nmol protein.

Each substance was assayed on CYP3A4 (assay: 7-Benzyloxy-4-(trifluoromethyl)coumarin (7-BFC) debenzylase activity of wild-type and mutant CYP3A4 proteins). Details: not given.
Type: biochemical, human
Experimental: as §1, §2
With “M1: CYP3A4 protein variant G56D (g.6004G>A, exon 3) [Mutant M1]” the “7-BFC debenzylase activity relative to CYP3A4” value was 137%.
For “M4: CYP3A4 protein variant D174H (g.14304G>C, exon 6) [Mutant M4]”, the “7-BFC debenzylase activity relative to CYP3A4” value was less than 50%.

Same assay, conditions: substrate 7-BFC
With “M4: CYP3A4 protein variant D174H (g.14304G>C, exon 6) [Mutant M4]” the “7-BFC debenzylase activity, 7-hydroxy-4-(trifluoromethyl)coumarin” value was 2.3 nmol product/min/nmol protein and 1.9 nmol product/min/nmol protein.
“M6: CYP3A4 protein variant L373F (g.21896C>T, exon 11) [Mutant M6]” was tested, and the “7-BFC debenzylase activity, 7-hydroxy-4-(trifluoromethyl)coumarin” value was 4.5 nmol product/min/nmol protein and 5.2 nmol product/min/nmol protein.
In the case of “WT: wild-type CYP3A4 protein encoded by pSE3A4H vector, identical to that found in most Caucasians, expressed in E. coli [reference compound]”, the “7-BFC debenzylase activity, 7-hydroxy-4-(trifluoromethyl)coumarin” value is reported as 6.5^a nmol product/min/nmol protein.

What follows are substances tested against T1, CYP3A4 (Homo sapiens, UniProt P08684, D174H) (assay: Progesterone hydroxylase activity of wild-type and mutant CYP3A4 proteins). Details: lower steroid concentration.
T1 construct: made in house; host or cells: E. coli TOPP3
T1 sequence (P08684 2-503 D174H): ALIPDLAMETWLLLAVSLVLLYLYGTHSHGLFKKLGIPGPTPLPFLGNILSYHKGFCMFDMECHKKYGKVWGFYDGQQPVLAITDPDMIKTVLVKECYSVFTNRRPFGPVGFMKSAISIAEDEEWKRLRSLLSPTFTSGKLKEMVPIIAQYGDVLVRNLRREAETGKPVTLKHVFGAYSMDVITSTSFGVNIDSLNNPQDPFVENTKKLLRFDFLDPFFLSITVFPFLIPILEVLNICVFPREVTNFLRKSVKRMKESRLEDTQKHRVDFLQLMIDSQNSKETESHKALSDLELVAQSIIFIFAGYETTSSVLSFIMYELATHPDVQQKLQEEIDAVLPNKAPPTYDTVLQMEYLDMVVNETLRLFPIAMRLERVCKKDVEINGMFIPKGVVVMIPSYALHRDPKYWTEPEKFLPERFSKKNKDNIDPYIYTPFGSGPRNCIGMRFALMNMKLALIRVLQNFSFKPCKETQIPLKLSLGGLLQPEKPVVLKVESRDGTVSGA
Type: biochemical
Experimental: as §1, §2
For “M4: CYP3A4 protein variant D174H (g.14304G>C, exon 6) [Mutant M4]”, the “Progesterone hydroxylase activity relative to wild-type CYP3A4” value was less than 50%.

These substances were tested on CYP3A4 in the same assay as above. Details: not given.
Type: biochemical, human
Experimental: as §1, §2
“M1: CYP3A4 protein variant G56D (g.6004G>A, exon 3) [Mutant M1]” was tested, and the “Progesterone (steroid) hydroxylase metabolite profile compared with wild-type CYP3A4” value was “Neither M1 nor M4 mutant displayed alterations”.
With “M4: CYP3A4 protein variant D174H (g.14304G>C, exon 6) [Mutant M4]” the “Progesterone (steroid) hydroxylase metabolite profile compared with wild-type CYP3A4” value was “Neither M1 nor M4 mutant displayed alterations”.

Same assay, conditions: 25 μM progesterone
“M1: CYP3A4 protein variant G56D (g.6004G>A, exon 3) [Mutant M1]” was tested, and the “Progesterone hydroxylase 6β/16α ratio” value was 5.6, 5.6, the “Progesterone hydroxylase activity, 6β-OH” value was 7.8, nmol product/min/nmol protein and 7.9^b nmol product/min/nmol protein and the “Progesterone hydroxylase activity, 16α-OH” value was 1.4, 1.4 nmol product/min/nmol protein.
In the case of “M4: CYP3A4 protein variant D174H (g.14304G>C, exon 6) [Mutant M4]”, the “Progesterone hydroxylase activity, 6β-OH” value is reported as 5.5 nmol product/min/nmol protein and 5.4 nmol product/min/nmol protein and the “Progesterone hydroxylase activity, 16α-OH” value is reported as 0.5, 0.5 nmol product/min/nmol protein.
With “M6: CYP3A4 protein variant L373F (g.21896C>T, exon 11) [Mutant M6]” the “Progesterone hydroxylase 6β/16α ratio” value was 7.5 and 7.7, the “Progesterone hydroxylase activity, 6β-OH” value was 15.8, nmol product/min/nmol protein and 12.3 nmol product/min/nmol protein and the “Progesterone hydroxylase activity, 16α-OH” value was 2.1 nmol product/min/nmol protein and 1.6 nmol product/min/nmol protein.
In the case of “WT: wild-type CYP3A4 protein encoded by pSE3A4H vector, identical to that found in most Caucasians, expressed in E. coli [reference compound]”, the “Progesterone hydroxylase 6β/16α ratio” value is reported as 7.1, the “Progesterone hydroxylase activity, 6β-OH” value is reported as 12.1^a nmol product/min/nmol protein and the “Progesterone hydroxylase activity, 16α-OH” value is reported as 1.7 nmol product/min/nmol protein.

Same assay, conditions: 150 μM progesterone
In the case of “M1: CYP3A4 protein variant G56D (g.6004G>A, exon 3) [Mutant M1]”, the “Progesterone hydroxylase 6β/16α ratio” value is reported as 5.1, 5.1, the “Progesterone hydroxylase activity, 6β-OH” value is reported as 21.3, nmol product/min/nmol protein and 21.3^b nmol product/min/nmol protein and the “Progesterone hydroxylase activity, 16α-OH” value is reported as 4.2, 4.2 nmol product/min/nmol protein.
“M4: CYP3A4 protein variant D174H (g.14304G>C, exon 6) [Mutant M4]” was tested, and the “Progesterone hydroxylase 6β/16α ratio” value was 5.5 and 5.9, the “Progesterone hydroxylase activity, 6β-OH” value was 21.4 nmol product/min/nmol protein and 18.4 nmol product/min/nmol protein and the “Progesterone hydroxylase activity, 16α-OH” value was 3.9 nmol product/min/nmol protein and 3.1 nmol product/min/nmol protein.
In the case of “M6: CYP3A4 protein variant L373F (g.21896C>T, exon 11) [Mutant M6]”, the “Progesterone hydroxylase 6β/16α ratio” value is reported as 7.9 and 7.7, the “Progesterone hydroxylase activity, 6β-OH” value is reported as 40.1 nmol product/min/nmol protein and 49.8 nmol product/min/nmol protein and the “Progesterone hydroxylase activity, 16α-OH” value is reported as 5.1 nmol product/min/nmol protein and 6.5 nmol product/min/nmol protein.
“WT: wild-type CYP3A4 protein encoded by pSE3A4H vector, identical to that found in most Caucasians, expressed in E. coli [reference compound]” was tested, and the “Progesterone hydroxylase 6β/16α ratio” value was 5.0, the “Progesterone hydroxylase activity, 6β-OH” value was 32.1^a nmol product/min/nmol protein and the “Progesterone hydroxylase activity, 16α-OH” value was 6.4 nmol product/min/nmol protein.

Each substance was assayed on CYP3A4 (assay: Western blot with anti-CYP3A12 polyclonal antibody). Details: not given.
Design: species or system human
Experimental: FIG. 7: Immunoblot of wild-type CYP3A4 (3A4), R130Q (M2), T363M (M5), and P416L (M7). P450 (1 pmol) was loaded into each lane, transferred to nitrocellulose, and probed with anti-3A12 IgG as described in Materials and Methods.
as §1
The effect of the protein variants on the expression level and catalytical activity of CYP3A4 was investigated using a bacterial CYP3A4 expression system. Sequence variants were introduced into the pSE3A4H expression vector (Harlow, J Biol Chem 272 (1997), 5396-402) which encodes for a CYP3A4 protein identical to that found in most Caucasians. […] Mutants M1-M8 were expressed in E. coli as described in Example 5, the expression of the CYP3A4 holoenzyme assessed by measuring reduced CO difference spectra, and the protein purified. […]
For “M2: CYP3A4 protein variant R130Q (g.13908G>A, exon 5) [Mutant M2]”, the Band in immunoblot was “Bands of the expected size”.
In the case of “M7: CYP3A4 protein variant P416L (g.22026C>T, exon 11) [Mutant M7]”, the Band in immunoblot is reported as “Only a very faint band”.
“WT: wild-type CYP3A4 protein encoded by pSE3A4H vector, identical to that found in most Caucasians, expressed in E. coli [reference compound]” was tested, and the Band in immunoblot was “Bands of the expected size”.

The substances below were run on CYP3A4 holoenzyme (assay: Expression of CYP3A4 holoenzyme in E. coli, reduced CO difference spectra). Details: not given.
Design: species or system human
Experimental: as §1
The effect of the protein variants on the expression level and catalytical activity of CYP3A4 was investigated using a bacterial CYP3A4 expression system. Sequence variants were introduced into the pSE3A4H expression vector (Harlow, J Biol Chem 272 (1997), 5396-402) which encodes for a CYP3A4 protein identical to that found in most Caucasians. No other, unwanted mutations were introduced into the CYP3A4 insert or the promoter driving its expression as confirmed by sequencing. Mutants M1-M8 were expressed in E. coli as described in Example 5, the expression of the CYP3A4 holoenzyme assessed by measuring reduced CO difference spectra, and the protein purified. All but M2, M5 and M7 mutants were detectable at levels similar to CYP3A4. […] The expression of M2, M5, and M7 was further investigated by Western Blotting using an anti-CYP3A12 polyclonal antibody known to cross-react with CYP3A4 (Ciaccio, Arch Biochem Biophys 271 (1989), 284-99) as described in Example 5.
With “M2: CYP3A4 protein variant R130Q (g.13908G>A, exon 5) [Mutant M2]” the “Effect of mutation on expression of CYP3A4 holoenzyme (conclusion)” value was “abolish”.
“M7: CYP3A4 protein variant P416L (g.22026C>T, exon 11) [Mutant M7]” was tested, and the “Effect of mutation on expression of CYP3A4 holoenzyme (conclusion)” value was “abolish”.

Same assay, conditions: E. coli expression, reduced CO difference spectra
With “M2: CYP3A4 protein variant R130Q (g.13908G>A, exon 5) [Mutant M2]” the “Detectable P450 holoprotein, in words” value was “no detectable P450 holoprotein”.
“M7: CYP3A4 protein variant P416L (g.22026C>T, exon 11) [Mutant M7]” was tested, and the “Detectable P450 holoprotein, in words” value was “no detectable P450 holoprotein”.
